From PMC8442874

Target: Soc-SpyCatcher fusion protein (displayed on T4 phage: T4-SpyCatcher phage) (bacteriophage T4)
Experiment: co-sedimentation

Substance: SUMO-RBD-SpyTag fusion protein, refolded (from UniProt P0DTC2 319-545) (domain or fragment)
- copies per capsid (rRBD molecules per capsid): 300
